Article PMC6366424, “Development of a novel, high-affinity ssDNA trypsin inhibitor”

What was measured:
Settings in all cases: protein: commercial
[1] = molecular target: T1, bovine trypsin (Bos taurus (bovine), UniProt P00760 24-246); test: bead pull-down; ELISA/pull-down: PBS pH 7.4, 5 mM MgCl2, 10 mM KCl, 0.01% Tween20, RT; SPR and inhibition (TAAB): 0.1 M Tris pH 7.5, 150 mM NaCl, 5 mM CaCl2, 10 mM KCl, 5 mM MgCl2, 0.02% Tween 20; inhibition at 37 C (full-length aptamer screen in selection buffer at RT)
T1 sequence (P00760 24-246): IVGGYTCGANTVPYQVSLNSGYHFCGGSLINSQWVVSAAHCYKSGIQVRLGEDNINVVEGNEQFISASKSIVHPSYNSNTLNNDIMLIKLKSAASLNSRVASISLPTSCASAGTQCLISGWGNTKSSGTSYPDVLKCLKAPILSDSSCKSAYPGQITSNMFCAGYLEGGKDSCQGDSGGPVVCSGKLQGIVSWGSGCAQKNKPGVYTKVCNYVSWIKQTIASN

[2] = molecular target: T1, bovine trypsin; test: enzyme inhibition (mixed mode); BAPNA, TAAB, 37 C; ELISA/pull-down: PBS pH 7.4, 5 mM MgCl2, 10 mM KCl, 0.01% Tween20, RT; SPR and inhibition (TAAB): 0.1 M Tris pH 7.5, 150 mM NaCl, 5 mM CaCl2, 10 mM KCl, 5 mM MgCl2, 0.02% Tween 20; inhibition at 37 C (full-length aptamer screen in selection buffer at RT)
[3] = molecular target: T1, bovine trypsin; test: SPR; kon 1.03e6 M-1s-1, koff 3.15e-3 s-1; TAAB; ELISA/pull-down: PBS pH 7.4, 5 mM MgCl2, 10 mM KCl, 0.01% Tween20, RT; SPR and inhibition (TAAB): 0.1 M Tris pH 7.5, 150 mM NaCl, 5 mM CaCl2, 10 mM KCl, 5 mM MgCl2, 0.02% Tween 20; inhibition at 37 C (full-length aptamer screen in selection buffer at RT)

B1: T22 (ssDNA)
DNA: CATGCTTCCCCAGGGAGATGGGTGTGAGGTTAGGAAATCTGTGTTGAACACTGCTTTCAGGGGGCTTGGGAGGAACATGCGTCGCAAAC
binding result [1]: binds

B2: T21 (ssDNA)
DNA: CATGCTTCCCCAGGGAGATGGGTGTGGGGTTAGGTCACTTTATGGTTGGTTCCATTGTGTCAGGGAGCCGGGAGGAACATGCGTCGCAAAC
binding result [1]: binds

B3: T59 (ssDNA)
DNA: CATGCTTCCCCAGGGAGATGGGTGTGAGGTTAGTTTGCGGTCCTGGCAAAGGGGGGCCTGGAGGAACATG
Ki [2]: 475 ± 48 nM

B4: T24 (ssDNA)
DNA: CATGCTTCCCCAGGGAGATGGGTGTGAGGTTAGTTTGCGGGAACTAGAATTCCTGGCAAAGGGGGGCCTGGAGGAACATGCGTCGCAAAC
Kd [3]: 3.06 nM | Ki [2]: 176 ± 16 nM
